The source of these data is PMC3222324, “PEGylating a bacteriophage endolysin inhibits its bactericidal activity” (AMB Express, 2011).

This data set concerns the molecule itself. Kind of data set: non-reducing SDS-PAGE; purified enzyme, not reduced; 37 kDa and 74 kDa bands (Figure 1, lane 2).

B1: Cpl-1^C45S;D194C (enzyme, pneumococcal phage, UniProt P15057 1-339, looked up)
chain: MVKKNDLFVDVSSHNGYDITGILEQMGTTNTIIKISESTTYLNPSLSAQVEQSNPIGFYHFARFGGDVAEAEREAQFFLDNVPMQVKYLVLDYEDDPSGDAQANTNACLRFMQMIADAGYKPIYYSYKPFTHDNVDYQQILAQFPNSLWIAGYGLNDGTANFEYFPSMDGIRWWQYSSNPFDKNIVLLDDEEDCKPKTAGTWKQDSKGWWFRRNNGSFPYNKWEKIGGVWYYFDSKGYCLTSEWLKDNEKWYYLKDNGAMATGWVLVGSEWYYMDDSGAMVTGWVKYKNNWYYMTNERGNMVSNEFIKSGKGWYFMNTNGELADNPSFTKEPDGLITVA
notes: Cpl-1, pneumococcal phage lysin (endolysin); gene originally carried on plasmid pJML6; expected 37 kDa band; Purified preparation holds the 37 kDa monomer and a 74 kDa disulfide-linked dimer; construct described in Resch et al., 2011; source: E. coli DH5α, purified (DEAE-Sepharose, eluted with choline)
For the protein B1, the stoichiometry N (as a rule, a count of units in the complex or per binding partner) is 2.
